From the supplement of paper PMC12764529
± gives the half width of the 95% confidence interval.

Columns and labels:
[1] = folding stability dG unfold from trypsin proteolysis; higher = more stable
Method in brief: (§1)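 How resistant each design was to proteolysis was captured as K50, inferred by Bayesian fitting of sequencing counts. Unfolding free energy was then derived relative to a sequence-predicted unfolded-state K50 and a shared folded-state K50, per protease or combined. Digestion used trypsin and chymotrypsin at 11 threefold-diluted concentrations plus a no-protease condition, on mini-proteins under 80 residues without cysteine in a PA-tagged cDNA display construct. Designs were kept only when AlphaFold2 dimer inter-PAE was above 15.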

[2] = folding stability dG unfold from chymotrypsin proteolysis; higher = more stable
Method in brief: as §1

[3] = folding stability dG unfold (combined trypsin and chymotrypsin); higher = more stable
Method in brief: as §1

Sequence	folding stability dG unfold [1]	folding stability dG unfold [2]	folding stability dG unfold [3]
SAGKKKIKIKLENGETKTLEIKPGETVEITFPNGLKATITKVKDGKIEIKVKEVYVKDKNGKWKKLKDLSAG [r5_417_TrROS_Hall]	1.72 ± 0.066 kcal/mol	2.6 ± 0.17 kcal/mol	2.29 ± 0.29 kcal/mol
SAGKKKKIKIKVTIVVPVKTKEDVELMKELAEKFAPELGKETAKKLGLPPEVEEIEVDVNILIVSPEELSAG [r5_436_TrMRF]	1.48 ± 0.14 kcal/mol	1.89 ± 0.13 kcal/mol	1.88 ± 0.2 kcal/mol
SAGKKKKKKLKITIEITYNKETNTVTIKITVDGKEITVEVKAKSKEEALLNALKELEKKLNIKIKEVKLSAG [r5_251_TrROS_Hall]	1.36 ± 0.13 kcal/mol	2.1 ± 0.18 kcal/mol	2.27 ± 0.36 kcal/mol
SAGKKKKKVKKKTVKLTITVKLKPGMTEEEALEKVKELAKALLPPGAKIKEVKFDKETKTVTVEIELTSAGG [r19_81_TrROS_Hall]	2.15 ± 0.054 kcal/mol	2 ± 0.23 kcal/mol	2.25 ± 0.19 kcal/mol
SAGKKKTVTIYLRVETPEEARKLVEELAKKLGAEVTSVEIEKVDGKYYVTVTIKVDGKEIKIVIEFEPSAGG [r19_262_TrROS_Hall]	2.04 ± 0.045 kcal/mol	3.03 ± 0.031 kcal/mol	2.67 ± 0.087 kcal/mol
SAGKKVTILIVVPETEEEAKKLAEELAKELAEKTGLEKVEVKVVPKGMTLEQLKELAKENNVDLVILVSAGG [r19_89_TrROS_Hall]	3.24 ± 0.21 kcal/mol	3.09 ± 0.15 kcal/mol	3.17 ± 0.24 kcal/mol
SAGKKYKVKKKITLTLEDGSKITIEIVENEDGTVEIKITDSNGKTRTITIPKEKLENMSLEELLKLLKSAGG [r19_47_TrROS_Hall]	1.76 ± 0.1 kcal/mol	1.73 ± 0.13 kcal/mol	1.92 ± 0.22 kcal/mol
SAGKLVLKPGETVEIGDMTIHFHPDGRVSATFPDGRSAAIRVTVDTDTDVVGFEFVEEHPDVGHTDAPGSAG [r5_33_TrMRF]	1.74 ± 0.1 kcal/mol	1.12 ± 0.057 kcal/mol	1.47 ± 0.11 kcal/mol
SAGKMVKVEIVIDVPPEEITEEELKAILEEEAEEVEITFDEETGKITITVTVSEEEAEKLREALKELGASAG [r5_378_TrROS_Hall]	1.02 ± 0.13 kcal/mol	1.04 ± 0.13 kcal/mol	1.3 ± 0.26 kcal/mol
SAGKPESFSIEAPPIAPPEFPLGGSYRTLPNGEVLVLITLPDGTVLVLPSLDELRELRESGLPIDISPSSAG [r5_42_TrMRF]	0.959 ± 0.017 kcal/mol	1.17 ± 0.045 kcal/mol	1.07 ± 0.045 kcal/mol
SAGKPGKTIKVTVPIPDSVKNAKIIVEYPNGKSKTITVPAGKNVTITFKVPGSSSVKVRVVLDDGSVIGSAG [r5_664_TrMRF]	2.9 ± 0.075 kcal/mol	2.45 ± 0.046 kcal/mol	2.69 ± 0.054 kcal/mol
SAGKPKVKVKKITVTITYDPETGTITIEATIEIDGKTIKLTITITLPEELRNLKPGDTITIEITIIIEPSAG [r5_714_TrROS_Hall]	3.4 ± 0.17 kcal/mol	2.86 ± 0.13 kcal/mol	3.15 ± 0.12 kcal/mol
SAGKPLPKLKTYEVDVPDNKKVKIEVYKLPDGTAIVKIKDDNGNESEIEIPLSLLENLSVEDLVKLAKSAGG [r19_47_TrMRF]	0.77 ± 0.028 kcal/mol	2.28 ± 0.047 kcal/mol	1.9 ± 0.095 kcal/mol
SAGKPRPVEIDFPMPPGFPNMPPEEMANMIARELDENGLKIEPKNMNPGEPYVRYTVEVNGKPILEITFSAG [r5_80_TrROS]	0.762 ± 0.081 kcal/mol	1.51 ± 0.12 kcal/mol	1.14 ± 0.12 kcal/mol
SAGKQEIKVEAVFPGDTLEEFMEFIREFLAEQGLKIEPTEFEIDKVQPMPGGPMIRVTAWIKIEPPDDSAGG [r19_325_TrROS]	2.31 ± 0.11 kcal/mol	2.95 ± 0.053 kcal/mol	2.8 ± 0.22 kcal/mol
SAGKTITVTSTHPDGRTATVTYTTLPDGSFKITSFTWEPWPDGTVTAKITTPDGTVITVNSIDDILKALSAG [r5_618_TrMRF]	2.4 ± 0.1 kcal/mol	3.52 ± 0.05 kcal/mol	3.27 ± 0.099 kcal/mol
SAGKTVEIKVTLKITRYEKLPDGSVKKEVKTLTITVTMSEEELNKEEIKNALKELLEKLPPDVKKIEITSAG [r5_849_TrROS_Hall]	2.8 ± 0.17 kcal/mol	4.63 ± 0.083 kcal/mol	4.34 ± 0.22 kcal/mol
SAGKVEIVVTYPDGSKAVIDSDNPLVFTITDPDGNSSTISGTGFDEALLKIVELLKEKTGKPVEKVEIKSAG [r5_119_TrMRF]	0.377 ± 0.098 kcal/mol	2.168 ± 0.021 kcal/mol	1.76 ± 0.14 kcal/mol
